Experimental data taken from PMC6454399, “A Parsimonious Mechanism of Sugar Dehydration by Human GDP-Mannose-4,6-dehydratase” (ACS Catalysis, 2019).
Changes are numbered by the printed parent chain. Names and notes keep the numbering of the source.

T1: human GDP-mannose 4,6-dehydratase (hGMD) (Homo sapiens, UniProt O60547, E157Q)
T1 construct: gene GMDS; purified enzyme, wild type and point variants; homodimer in crystals (two to four homodimers per asymmetric unit); construct borders, tags and host only in supplement
T1 sequence (O60547 2-372 E157Q limits assumed): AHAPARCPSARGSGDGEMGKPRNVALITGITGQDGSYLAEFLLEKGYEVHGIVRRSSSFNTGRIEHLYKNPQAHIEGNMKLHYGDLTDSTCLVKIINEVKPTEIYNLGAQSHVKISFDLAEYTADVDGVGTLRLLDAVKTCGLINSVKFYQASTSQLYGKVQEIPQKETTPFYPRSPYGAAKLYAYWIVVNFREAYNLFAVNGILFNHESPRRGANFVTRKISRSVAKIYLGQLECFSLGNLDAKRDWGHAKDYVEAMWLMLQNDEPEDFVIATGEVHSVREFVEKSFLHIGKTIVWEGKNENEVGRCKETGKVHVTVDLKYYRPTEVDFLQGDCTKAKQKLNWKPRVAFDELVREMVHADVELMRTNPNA

T2: human GDP-mannose 4,6-dehydratase (hGMD) (Homo sapiens, UniProt O60547)
T2 construct: gene GMDS; purified enzyme, wild type and point variants; homodimer in crystals (two to four homodimers per asymmetric unit); construct borders, tags and host only in supplement
T2 sequence (O60547 2-372 limits assumed): T1 sequence (O60547 2-372 E157Q limits assumed) with Q156E

B1: human GDP-mannose 4,6-dehydratase (hGMD) (Homo sapiens) (protein)
chain: T1 sequence (O60547 2-372 E157Q limits assumed) with Q156E
notes: purified enzyme, wild type and point variants; homodimer in crystals (two to four homodimers per asymmetric unit); construct borders, tags and host only in supplement
B2: human GDP-mannose 4,6-dehydratase (hGMD) (Homo sapiens; S156A) (protein)
chain: T1 sequence (O60547 2-372 E157Q limits assumed) with S155A, Q156E
notes: as for B1

Tests used:
[1] = target: T1, human GDP-mannose 4,6-dehydratase (hGMD); assay: X-ray crystal structure, […] Å; settings: GDP-mannose also bound; NADP+ binding site
[2] = target: T2, human GDP-mannose 4,6-dehydratase (hGMD); assay: isothermal titration calorimetry; assay type: binding
[3] = substrate: Nc1nc2c(ncn2[C@@H]2O[C@H](COP(=O)(O)OP(=O)(O)O[C@H]3O[C@H](CO)[C@@H](O)[C@H](O)[C@@H]3O)[C@@H](O)[C@H]2O)c(=O)[nH]1; assay: initial rate measurements; assay type: biochemical, Homo sapiens; settings: 37 °C
Text: initial rate measurements on human GDP-mannose 4,6-dehydratase (hGMD)

Kd [2] [nM]	Molecule	X-ray crystal structure, 1.47 Å [1]	Km [3] [µM]	kcat [3] [s⁻¹]
–	NC(=O)c1ccc[n+]([C@@H]2O[C@H](COP(=O)(O)OP(=O)(O)OC[C@H]3O[C@@H](n4cnc5c(N)ncnc54)[C@H](OP(=O)(O)O)[C@@H]3O)[C@@H](O)[C@H]2O)c1 [NADP^+]	each monomer has bound GDP-mannose (purple) and NADP^+ (yellow)	–	–
1600	Nc1nc2c(ncn2[C@@H]2O[C@H](COP(=O)(O)OP(=O)(O)O[C@H]3O[C@H](CO)[C@@H](F)[C@H](O)[C@@H]3O)[C@@H](O)[C@H]2O)c(=O)[nH]1 [GDP-4″-deoxy-4″-fluoro-mannose]	–	–	–
–	B1	–	8 ± 1	0.42 ± 0.08
–	B2	–	127 ± 5	0.05 ± 0.01
